We go through 4 substances from US20050036947A1, “Target-specific activatable polymeric imaging agents” (General Electric Company, priority 2003, published 2005).

Where no end group is shown, it is not given here. [ ]: non-standard residue; d: D form. Hyp = O=C(O)[C@@H]1C[C@@H](O)CN1

The nature of series [1]: Relaxivity of the contrast agent (effect on T1 relaxation of water protons). Particulars: for relaxivity: globular vs elongated conformation. The format is physicochemical. The text has this: When the carrier molecule is in an elongated conformation, the chelator entity, which provides the MR activity, is free to rotate about its attachment point to the main chain, allowing a […] T1 relaxation time of the surrounding water protons, which are the source of the MR signal. When the carrier molecule is in a globular or highly folded conformation, the paramagnetic ions on the chelator entities tumble at a slower rate (along with the entire molecule). […] A low relaxivity or long relaxation time is associated with an elongated molecule such as a highly substituted Gd-DTPA-PLL, in which the Gd can rotate rapidly, having a relaxivity of about 8 sec^−1 mM^−1. When the relaxivity of a peptide contrast agent was high, the uptake coefficient of such an agent was invariably low, evidently due to the absence of a reptation movement of the contrast agent molecule, resulting in the exclusion of the contrast agent from narrow passages. Thus, it is important to establish that the peptides being compared for optimum length are all of the same conformation.

The subject of series [2] is α-fetoprotein (“AFP”) receptor. Particulars: MCF-7 human breast cancer cells; cited from earlier work.
Series [3] is described as follows: Cross-sectional diameter of the conjugated polymer. The format is physicochemical. Particulars: highly conjugated.

Turning to albumin, the relaxivity result in series [1] was “about 15 sec^−1 mM^−1”.
In the case of “EMTOVNOG (EMT[Hyp]VN[Hyp]G) [linear octapeptide; O represents 4-hydroxyproline]”, the “bind to α-fetoprotein (“AFP”) receptor” value in series [2] is listed as “bind”.
In the case of “EMTOVNOGQ (EMT[Hyp]VN[Hyp]GQ; also: cyclic, mode not given here) [cyclic peptide; O represents 4-hydroxyproline]”, the “bind to α-fetoprotein (“AFP”) receptor” value in series [2] is listed as “bind”.
With Gd-DTPA-PLL, the relaxivity result in series [1] is listed as “about 8 sec^−1 mM^−1”. The substance further registered a relaxivity in bulk water in series [1] (highly conjugated (degree of conjugation about 90 percent or higher)) of 6.8 to 7.8 mM⁻¹ s⁻¹. For the same substance, the cross-sectional diameter result in series [3] was “about 25 angstroms”.
